To fix the notation:
B1: IgG1-F920 (antibody)
heavy: QVQLQESGPGLVKPSETLSLTCAVSGHSISHDHAWSWVRQPPGEGLEWIGFISYSGITNYNPSLQGRVTISRDNSKNTLYLQMNSLRAEDTAVYYCARSLARTTAMDYWGEGTLVTVSSASTKGPSVFPLAPSSKSTSGGTAALGCLVKDYFPEPVTVSWNSGALTSGVHTFPAVLQSSGLYSLSSVVTVPSSSLGTQTYICNVNHKPSNTKVDKKVEPKSCDKTHTCPPCPAPELLGGPSVFLFPPKPKDTLYISRTPEVTCVVVDVSHEDPEVKFNWYVDGVEVHSAKTKPREEQYNSTYRVVSVLTVLHQDWLNGKEYKCKVSNKALPAPIEKTISKAKGQPREPQVYTLPPSRDELTKNQVSLTCLVKGFYPSDIAVEWESAGQPEANYKTTPPVLDSDGSFFLYSKLTVDKSRWQQGNVFSCSVMHEALHYHYTQKSLSLSP
light: not shown
notes: EU numbering; copies: 2 + 2
B2: IgG1-F925 (antibody)
heavy: QVQLQESGPGLVKPSETLSLTCAVSGHSISHDHAWSWVRQPPGEGLEWIGFISYSGITNYNPSLQGRVTISRDNSKNTLYLQMNSLRAEDTAVYYCARSLARTTAMDYWGEGTLVTVSSASTKGPSVFPLAPSSKSTSGGTAALGCLVKDYFPEPVTVSWNSGALTSGVHTFPAVLQSSGLYSLSSVVTVPSSSLGTQTYICNVNHKPSNTKVDKKVEPKSCDKTHTCPPCPAPELRGGPKVFLFPPKPKDTLYISRTPEVTCVVVDVSHEDPEVKFNWYVDGVEVHNAKTKPREEQYNSTYRVVSVLQVLHADWLNGKEYKCKVSNKALPAPIEKTISKAKGQPREPQVYTLPPSRDELTKNQVSLTCLVKGFYPSDIAVEWESNGQPENNYKTTPPVLDSDGSFFLYSKLTVDKSRWQQGNVFSCSVMHEALHYHITQKSLSLSP
light: not shown
notes: EU numbering; copies: 2 + 2
B3: IgG1-F923 (antibody)
heavy: QVQLQESGPGLVKPSETLSLTCAVSGHSISHDHAWSWVRQPPGEGLEWIGFISYSGITNYNPSLQGRVTISRDNSKNTLYLQMNSLRAEDTAVYYCARSLARTTAMDYWGEGTLVTVSSASTKGPSVFPLAPSSKSTSGGTAALGCLVKDYFPEPVTVSWNSGALTSGVHTFPAVLQSSGLYSLSSVVTVPSSSLGTQTYICNVNHKPSNTKVDKKVEPKSCDKTHTCPPCPAPELRGGPKVFLFPPKPKDTLYISRTPEVTCVVVDVSHEDPEVKFNWYVDGVEVHEAKTKPREEQYNSTYRVVSVLTVLHQDWLNGKEYKCKVSNKALPAPIEKTISKAKGQPREPQVYTLPPSRDELTKNQVSLTCLVKGFYPSDIAVEWESNGQPENNYKTTPPVLDSDGSFFLYSKLTVDKSRWQQGNVFSCSVMHEALHYHITQKSLSLSP
light: not shown
notes: EU numbering; copies: 2 + 2
B4: IgG1-F927 (antibody)
heavy: QVQLQESGPGLVKPSETLSLTCAVSGHSISHDHAWSWVRQPPGEGLEWIGFISYSGITNYNPSLQGRVTISRDNSKNTLYLQMNSLRAEDTAVYYCARSLARTTAMDYWGEGTLVTVSSASTKGPSVFPLAPSSKSTSGGTAALGCLVKDYFPEPVTVSWNSGALTSGVHTFPAVLQSSGLYSLSSVVTVPSSSLGTQTYICNVNHKPSNTKVDKKVEPKSCDKTHTCPPCPAPELRGGPKVFLFPPKPKDTLYITRTPEVTCVVVDVSHEDPEVKFNWYVDGVEVHNAKTKPREEQYNSTYRVVSVLTVLHQDWLNGKEYKCKVSNKALPAPIEKTISKAKGQPREPQVYTLPPSRDELTKNQVSLTCLVKGFYPSDIAVEWESNGQPENNYKTTPPVLDSDGSFFLYSKLTVDKSRWQQGNVFSCSVMHEALHYHITQKSLSLSP
light: not shown
notes: EU numbering; copies: 2 + 2
B5: IgG1-F926 (antibody)
heavy: QVQLQESGPGLVKPSETLSLTCAVSGHSISHDHAWSWVRQPPGEGLEWIGFISYSGITNYNPSLQGRVTISRDNSKNTLYLQMNSLRAEDTAVYYCARSLARTTAMDYWGEGTLVTVSSASTKGPSVFPLAPSSKSTSGGTAALGCLVKDYFPEPVTVSWNSGALTSGVHTFPAVLQSSGLYSLSSVVTVPSSSLGTQTYICNVNHKPSNTKVDKKVEPKSCDKTHTCPPCPAPELKGGPKVFLFPPKPKDTLYITRTPEVTCVVVDVSHEDPEVKFNWYVDGVEVHNAKTKPREEQYNSTYRVVSVLTVLHQDWLNGKEYKCKVSNKALPAPIEKTISKAKGQPREPQVYTLPPSRDELTKNQVSLTCLVKGFYPSDIAVEWESNGQPENNYKTTPPVLDSDGSFFLYSKLTVDKSRWQQGNVFSCSVMHEALHYHITQKSLSLSP
light: not shown
notes: EU numbering; copies: 2 + 2
B6: IgG1-F929 (antibody)
heavy: QVQLQESGPGLVKPSETLSLTCAVSGHSISHDHAWSWVRQPPGEGLEWIGFISYSGITNYNPSLQGRVTISRDNSKNTLYLQMNSLRAEDTAVYYCARSLARTTAMDYWGEGTLVTVSSASTKGPSVFPLAPSSKSTSGGTAALGCLVKDYFPEPVTVSWNSGALTSGVHTFPAVLQSSGLYSLSSVVTVPSSSLGTQTYICNVNHKPSNTKVDKKVEPKSCDKTHTCPPCPAPELLGGPSVFLFPPKPKDTLYITRTPEVTCVVVDVSHEDPEVKFNWYVDGVEVHNAKTKPREEQYNSTYRVVSVLQVLHADWLNGKEYKCKVSNKALPAPIEKTISKAKGQPREPQVYTLPPSRDELTKNQVSLTCLVKGFYPSDIAVEWESNGQPENNYKTTPPVLDSDGSFFLYSKLTVDKSRWQQGNVFSCSVMHEALHYHITQKSLSLSP
light: not shown
notes: EU numbering; copies: 2 + 2
B7: IgG1-F924 (antibody)
heavy: QVQLQESGPGLVKPSETLSLTCAVSGHSISHDHAWSWVRQPPGEGLEWIGFISYSGITNYNPSLQGRVTISRDNSKNTLYLQMNSLRAEDTAVYYCARSLARTTAMDYWGEGTLVTVSSASTKGPSVFPLAPSSKSTSGGTAALGCLVKDYFPEPVTVSWNSGALTSGVHTFPAVLQSSGLYSLSSVVTVPSSSLGTQTYICNVNHKPSNTKVDKKVEPKSCDKTHTCPPCPAPELKGGPKVFLFPPKPKDTLYISRTPEVTCVVVDVSHEDPEVKFNWYVDGVEVHNAKTKPREEQYNSTYRVVSVLQVLHADWLNGKEYKCKVSNKALPAPIEKTISKAKGQPREPQVYTLPPSRDELTKNQVSLTCLVKGFYPSDIAVEWESNGQPENNYKTTPPVLDSDGSFFLYSKLTVDKSRWQQGNVFSCSVMHEALHYHITQKSLSLSP
light: not shown
notes: EU numbering; copies: 2 + 2
B8: IgG1-F922 (antibody)
heavy: QVQLQESGPGLVKPSETLSLTCAVSGHSISHDHAWSWVRQPPGEGLEWIGFISYSGITNYNPSLQGRVTISRDNSKNTLYLQMNSLRAEDTAVYYCARSLARTTAMDYWGEGTLVTVSSASTKGPSVFPLAPSSKSTSGGTAALGCLVKDYFPEPVTVSWNSGALTSGVHTFPAVLQSSGLYSLSSVVTVPSSSLGTQTYICNVNHKPSNTKVDKKVEPKSCDKTHTCPPCPAPELKGGPKVFLFPPKPKDTLYISRTPEVTCVVVDVSHEDPEVKFNWYVDGVEVHEAKTKPREEQYNSTYRVVSVLTVLHQDWLNGKEYKCKVSNKALPAPIEKTISKAKGQPREPQVYTLPPSRDELTKNQVSLTCLVKGFYPSDIAVEWESNGQPENNYKTTPPVLDSDGSFFLYSKLTVDKSRWQQGNVFSCSVMHEALHYHITQKSLSLSP
light: not shown
notes: EU numbering; copies: 2 + 2
B9: IgG1-F921 (antibody)
heavy: QVQLQESGPGLVKPSETLSLTCAVSGHSISHDHAWSWVRQPPGEGLEWIGFISYSGITNYNPSLQGRVTISRDNSKNTLYLQMNSLRAEDTAVYYCARSLARTTAMDYWGEGTLVTVSSASTKGPSVFPLAPSSKSTSGGTAALGCLVKDYFPEPVTVSWNSGALTSGVHTFPAVLQSSGLYSLSSVVTVPSSSLGTQTYICNVNHKPSNTKVDKKVEPKSCDKTHTCPPCPAPELLGGPSVFLFPPKPKDTLYISRTPEVTCVVVDVSHEDPEVKFNWYVDGVEVHEAKTKPREEQYNSTYRVVSVLTVLHQDWLNGKEYKCKVSNKALPAPIEKTISKAKGQPREPQVYTLPPSRDELTKNQVSLTCLVKGFYPSDIAVEWESAGQPEANYKTTPPVLDSDGSFFLYSKLTVDKSRWQQGNVFSCSVMHEALHYHYTQKSLSLSP
light: not shown
notes: EU numbering; copies: 2 + 2

T1 sequence (chain, as listed by the source limits assumed, chain 1 of 2): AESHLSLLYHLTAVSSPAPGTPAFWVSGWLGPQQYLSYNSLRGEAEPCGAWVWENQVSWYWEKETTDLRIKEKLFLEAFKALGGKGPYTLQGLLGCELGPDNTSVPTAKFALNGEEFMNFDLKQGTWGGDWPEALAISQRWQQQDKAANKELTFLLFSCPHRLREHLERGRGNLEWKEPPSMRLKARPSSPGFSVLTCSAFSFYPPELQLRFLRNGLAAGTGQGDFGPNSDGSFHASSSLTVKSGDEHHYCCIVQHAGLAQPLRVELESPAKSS
T1 sequence (P61769 21-119 limits assumed, chain 2 of 2): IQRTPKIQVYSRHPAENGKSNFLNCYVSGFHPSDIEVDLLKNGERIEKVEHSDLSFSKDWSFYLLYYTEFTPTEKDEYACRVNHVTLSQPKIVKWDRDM

This experiment concerns the target T1, soluble human FcRn complexed with β2-microglobulin (human, UniProt P61769 21-119, limits assumed).
T1 construct: also called hFcRn
Description: Biacore SPR, pH 7.0.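 Also: test antibodies captured on a Protein L chip with human FcRn flowed over as analyte, KD obtained as the ratio of dissociation to association rate constants.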
B1 showed a Kd of 250 nM.
Take B2: the affinity, expressed as Kd, was 32 nM.
Under B3 stands 60 nM; under B4, 100 nM.
Under B5 stands 110 nM; under B6, 29 nM.
B7 showed a Kd of 34 nM.
Take B8: the Kd was 59 nM.
As for B9, the Kd was determined as 120 nM.

One may read the Kd as the concentration at which binding is half-saturated. Low values mean higher affinity, high ones lower affinity.

The values above are taken from US20200199241A1 (Chugai, published 2020).
